The target of assay [1] is T1, recombinant human IL-1β (human, UniProt P01584 117-269).
T1 construct: mature; it is entered under this molecule; also called human interleukin 1 beta; huIL-1β
Briefly: Biacore competition: AAL160 immobilised on the chip, recombinant human IL-1β (8 nM) injected with increasing concentrations of soluble receptor type I; readout is % binding of IL-1β to AAL160 (competitor: AAL160). On the technique in general: In SPR one partner is held on a chip, and binding of the other changes the refractive index at the surface.

For assay [2], the target named is T2, Rat IL-1β (rat, UniProt Q63264 117-268).
T2 sequence (looked up): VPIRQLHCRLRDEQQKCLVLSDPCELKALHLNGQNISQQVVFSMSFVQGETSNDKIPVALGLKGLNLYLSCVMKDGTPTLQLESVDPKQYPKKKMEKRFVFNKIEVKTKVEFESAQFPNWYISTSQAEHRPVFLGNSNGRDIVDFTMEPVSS
Put plainly: Biacore, AAL160 immobilised.

Assay [3] deals with T3, Human IL-1Ra (human, UniProt P18510 26-177).
T3 construct: also called IL-1 receptor antagonist
T3 sequence (P18510 26-177 limits assumed): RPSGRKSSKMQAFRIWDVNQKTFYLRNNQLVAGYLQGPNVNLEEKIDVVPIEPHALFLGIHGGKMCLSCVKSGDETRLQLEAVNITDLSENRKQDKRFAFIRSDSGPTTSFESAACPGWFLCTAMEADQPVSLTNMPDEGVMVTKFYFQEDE
Briefly: Biacore, AAL160 immobilised.

Assay [4] addresses T4, Human IL-1α (human, UniProt P01583 113-271).
T4 sequence (looked up): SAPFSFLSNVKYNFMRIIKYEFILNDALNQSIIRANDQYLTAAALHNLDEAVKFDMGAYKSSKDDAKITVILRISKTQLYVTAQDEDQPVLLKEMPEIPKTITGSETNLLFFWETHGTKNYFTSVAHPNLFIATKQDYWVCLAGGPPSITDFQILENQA
Briefly: Biacore, AAL160 immobilised.

The target in assay [5] is T5, Mouse IL-1β (mouse, UniProt P10749 118-269).
T5 construct: also called murine IL-1β
T5 sequence (looked up): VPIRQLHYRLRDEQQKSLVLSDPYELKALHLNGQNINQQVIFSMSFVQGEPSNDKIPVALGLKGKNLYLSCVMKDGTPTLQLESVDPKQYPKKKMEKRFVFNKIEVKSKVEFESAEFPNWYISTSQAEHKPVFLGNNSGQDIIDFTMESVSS
Put plainly: Biacore, AAL160 immobilised.

Assay [6] has as its target T1, recombinant human IL-1β. Put plainly: cell-based or functional assay.
The target of assay [7] is T2, Rat IL-1β. Briefly: Biacore; AAL160 immobilised, cytokine at 8 nM (or 20 nM in the case of IL-1β).
Assay [8] concerns the target T3, Human IL-1Ra. Described as above.
In assay [9] the target is T4, Human IL-1α. The assay is described as above.
Assay [10] deals with T1, recombinant human IL-1β. Described as above.
Another assay addresses T6, Cynomolgus IL-1β (cynomolgus monkey, UniProt P79182 117-268).
T6 construct: also called cynomolgus monkey IL-1β
T6 sequence (looked up): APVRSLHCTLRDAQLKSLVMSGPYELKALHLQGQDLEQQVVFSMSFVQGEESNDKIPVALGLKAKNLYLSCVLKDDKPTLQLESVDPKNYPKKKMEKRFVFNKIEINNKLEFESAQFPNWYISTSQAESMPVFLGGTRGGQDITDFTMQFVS
Described as above.

The target of assay [11] is T5, Mouse IL-1β. The assay is described as above.
Assay [12] has as its target T1, recombinant human IL-1β. Put plainly: BIAcore SPR; AAL160 immobilised, recombinant IL-1β 0.5 to 12 nM, 1:1 model, n = 15. As to the method:
Data analysis is performed using the BIAevaluation software.

A word on the IC50: it is the concentration needed to halve the response being measured. As a reminder, the Kd is the constant that tells how readily two partners part at equilibrium. Usually koff stands for the first-order rate constant of dissociation. As a reminder, the kon is the rate constant with which the complex forms.

B1: recombinant human soluble IL-1 receptor type I (receptor, UniProt P14778 18-332, looked up)
chain: LEADKCKEREEKIILVSSANEIDVRPCPLNPNEHKGTITWYKDDSKTPVSTEQASRIHQHKEKLWFVPAKVEDSGHYYCVVRNSSYCLRIKISAKFVENEPNLCYNAQAIFKQKLPVAGDGGLVCPYMEFFKNENNELPKLQWYKDCKPLLLDNIHFSGVKDRLIVMNVAEKHRGNYTCHASYTYLGKQYPITRVIEFITLEENKPTRPVIVSPANETMEVDLGSQIQLICNVTGQLSDIAYWKWNGSVIDEDDPVLGEDYYSVENPANKRRSTLITVLNISEIESRFYKHPFTCFAKNTHGIDAAYIQLIYPVT
notes: soluble; also called soluble IL-1 type I receptor; receptor I
Regarding B1, the IC50 with recombinant human IL-1β [1] was 3.4 nM.

B2: AAL160 antibody (human IgG1/κ monoclonal antibody to human IL-1β) (antibody, V domains shown)
VH: EVQLVQSGAEVKKPGESLKISCKGSGYSFTSYWIGWVRQMPGKGLEWMGIIYPSDSDTRYSPSFQGQVTISADKSISTAYLQWSSLKASDTAMYYCARYTNWDAFDIWGQGTMVTVSS
VL: EIVLTQSPATLSLSPGERATLSCRASQSVSSYLAWYQQKPGQAPRLLIYDASNRATGIPARFSGSGSGTDFTLTISSLEPEDFAVYYCQQRSNWMFPFGQGTKLEIK
notes: It was purified from hybridoma supernatant on protein A; also called NVP AAL 160 NX-1; hybridoma # 476
As to B2, the binding result in the assay with Rat IL-1β [2], in the assay with Human IL-1Ra [3], with Human IL-1α [4] and with Mouse IL-1β [5] was “no binding (tested: 8 nM (or 20 nM in the case of IL-1β))” throughout. For the same molecule, the “IC50, IL-6 secretion, Recombinant (primary human dermal fibroblasts stimulated with recombinant IL-1β)” value in the assay with recombinant human IL-1β [6] came to 0.34 nM. Besides, in the assay with recombinant human IL-1β [6], the “IC50, IL-6 secretion, cond. Medium (primary human dermal fibroblasts stimulated with conditioned medium of LPS-stimulated human PBMCs, natural IL-1β)” value was determined as 0.6 nM. The “IC50, PGE2 production, cond. Medium (primary human dermal fibroblasts stimulated with conditioned medium of LPS-stimulated human PBMCs, natural IL-1β)” value in the assay with recombinant human IL-1β [6] was 0.79 nM. The “Percent of total binding” value is 3% in the assay with Rat IL-1β [7]; 1.2% with Human IL-1Ra [8]; 0.7% with Human IL-1α [9]; 100% with recombinant human IL-1β [10]; 96.4% with Cynomolgus IL-1β; 2.8% with Mouse IL-1β [11]. In addition, in the assay with recombinant human IL-1β [12], the Kd stood at 0.397 nM. The koff with recombinant human IL-1β [12] is 0.000153 s⁻¹. Besides, in the assay with recombinant human IL-1β [12], the kon is 391000 M⁻¹ s⁻¹.

Source of the values: patent publication US20090232803A1 (Novartis, published 2009).
